For 15 molecules, Kd, koff and kon results are on record in US20160159924A1 (Novo Nordisk, published 2016).

The target in assay [1] is T1, recombinant human sc-uPA (human, UniProt P00749 21-431).
T1 construct: 411 amino acid single-chain zymogen expressed in HEK293; the 20-residue signal peptide is not present in the mature protein; also called human single-chain uPA; pro-uPA
Description: SPR, mAb immobilised. Summed up: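 Anti-uPA mAb variants amine-coupled to CM5 chip at 150-600 RU; sc-uPA injected 60 s at 1000-0.13 nM (3-fold) in HBS-N with 1% BSA, 600 s dissociation, 25 °C, 30 μL/min. Kinetics fitted by 1:1 binding model; glycine pH1.5 regeneration.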
For orientation: Surface plasmon resonance follows binding to a sensor surface in real time, without labels.

The target in assay [2] is T1, recombinant human sc-uPA. Description: SPR, mAb immobilised. As for the experimental part:
The binding affinity to recombinant human sc-uPA protein (SEQ ID […]) was measured by surface plasmon resonance (SPR).
(§1) The experiments were performed on a Biacore™ instrument (GE Healthcare) and analysed with the BIAcore 4000 Evaluation Software. Anti-human uPA mAb variants were directly immobilized at 150-600 RU on flow cells of a CM5 sensor chip (GE Healthcare; cat. # BR-1000-12) via amine coupling, respectively. Recombinant human sc-uPA was diluted in HBS-N (GE Healthcare Cat BR-1006-70) with 1% BSA buffer with a dilution factor 3× ranging 1000-0.13 nM. Recombinant human sc-uPA was injected for 60 s, followed by a 600 s dissociation phase. Binding curves were measured at 25° C. with a flow rate of 30 μL/min. Regeneration of the chip surface was performed with pH1.5 Glycine for 25 s at 30 μl/min. Determination of the kinetic parameters was performed by fitting with a 1:1 binding model. Binding affinities were calculated and are stated in Table 20 below.
The source holds these as a separate data set.

The target of assay [3] is T1, recombinant human sc-uPA. Description: SPR (Biacore), mAb immobilised, sc-uPA as analyte, 25 C. The procedure:
(§2) In order to compare with murine mAb, the binding profile to recombinant human sc-uPA protein (SEQ ID NO: 1) and cynomolgus sc-uPA (SEQ ID NO: 3) was measured by surface plasmon resonance (SPR).
as §1, with “Software. […]” for “Software. Anti-human uPA mAb variants were directly immobilized at 150-600 RU on flow cells of a CM5 sensor chip (GE Healthcare; cat. # BR-1000-12) via amine coupling, respectively.”, “sc-uPA and cynomolgus sc-uPA proteins were” for “sc-uPA was”, “model. Kinetic parameters” for “model. Binding affinities”, “Table 14” for “Table 20”

Assay [4] addresses T2, recombinant cynomolgus sc-uPA (cynomolgus monkey, UniProt P16227 29-433 (Papio cynocephalus entry)).
T2 construct: The exact signal peptide is said not to be established; also called cyno pro-uPA; cyno pro-uPA-6xHis
The assay is described as above. The procedure: as §2
as §1, with “Software. […]” for “Software. Anti-human uPA mAb variants were directly immobilized at 150-600 RU on flow cells of a CM5 sensor chip (GE Healthcare; cat. # BR-1000-12) via amine coupling, respectively.”, “sc-uPA and cynomolgus sc-uPA proteins were” for “sc-uPA was”, “model. Kinetic parameters” for “model. Binding affinities”, “Table 14” for “Table 20”

B1: rec0266-0000-0010 (antibody, mouse IgG1, V domains shown)
VH: DVKLVESGGGLVKPGGSLKLSCVASGFTFSSYTMSWVRQTPEKRLEWVATISGGGSHIYYADSVKGRFTISRDNAKNTLYLQMSSLKSEDTAIYYCTRDGRDGSWFAYWGQGTLVTVSA
VL: DIVMTQSPATLSVTPGDRVSLSCRTSQSIGDYLHWYQQKSHESPRLLIKYVSQSISGIPSRFSGSGSGSDFTLSINSVESEDVGVYYCQNSHSFPLTFGSGTKLELKR
notes: also called mAb rec0266-0000-0010
As to B1, the dissociation constant (Kd) in the assay with recombinant human sc-uPA [1] worked out at 0.47 nM; in the assay with recombinant human sc-uPA [2], 0.47 nM; with recombinant human sc-uPA [3], 0.944 nM; in assay [4], 0.0526 nM. For the same molecule, the koff with recombinant human sc-uPA [3] is 0.00053 s⁻¹; in assay [4], 0.000104 s⁻¹. Further, the kon came out at 561000 M⁻¹ s⁻¹ with recombinant human sc-uPA [3] and 1.98e+06 M⁻¹ s⁻¹ in assay [4].

B2: rec0266-0000-0010-VL_S91R (antibody, mouse IgG1, name in Kabat numbering, V domains shown)
VH: DVKLVESGGGLVKPGGSLKLSCVASGFTFSSYTMSWVRQTPEKRLEWVATISGGGSHIYYADSVKGRFTISRDNAKNTLYLQMSSLKSEDTAIYYCTRDGRDGSWFAYWGQGTLVTVSA
VL: DIVMTQSPATLSVTPGDRVSLSCRTSQSIGDYLHWYQQKSHESPRLLIKYVSQSISGIPSRFSGSGSGSDFTLSINSVESEDVGVYYCQNRHSFPLTFGSGTKLELKR
B2: in the assay with recombinant human sc-uPA [2], the Kd worked out at 3.1 nM.

B3: rec0266-0000-0010-VL_S91Y (antibody, mouse IgG1, name in Kabat numbering, V domains shown)
VH: DVKLVESGGGLVKPGGSLKLSCVASGFTFSSYTMSWVRQTPEKRLEWVATISGGGSHIYYADSVKGRFTISRDNAKNTLYLQMSSLKSEDTAIYYCTRDGRDGSWFAYWGQGTLVTVSA
VL: DIVMTQSPATLSVTPGDRVSLSCRTSQSIGDYLHWYQQKSHESPRLLIKYVSQSISGIPSRFSGSGSGSDFTLSINSVESEDVGVYYCQNYHSFPLTFGSGTKLELKR
For the molecule B3, the dissociation constant Kd with recombinant human sc-uPA [2] was 3.6 nM.

B4: rec0266-0000-0010-VL_S91E (antibody, mouse IgG1, name in Kabat numbering, V domains shown)
VH: DVKLVESGGGLVKPGGSLKLSCVASGFTFSSYTMSWVRQTPEKRLEWVATISGGGSHIYYADSVKGRFTISRDNAKNTLYLQMSSLKSEDTAIYYCTRDGRDGSWFAYWGQGTLVTVSA
VL: DIVMTQSPATLSVTPGDRVSLSCRTSQSIGDYLHWYQQKSHESPRLLIKYVSQSISGIPSRFSGSGSGSDFTLSINSVESEDVGVYYCQNEHSFPLTFGSGTKLELKR
For the molecule B4, the equilibrium dissociation constant (Kd) with recombinant human sc-uPA [2] was found to be 10 nM.

B5: rec0266-0000-0010-VL_S91V (antibody, mouse IgG1, name in Kabat numbering, V domains shown)
VH: DVKLVESGGGLVKPGGSLKLSCVASGFTFSSYTMSWVRQTPEKRLEWVATISGGGSHIYYADSVKGRFTISRDNAKNTLYLQMSSLKSEDTAIYYCTRDGRDGSWFAYWGQGTLVTVSA
VL: DIVMTQSPATLSVTPGDRVSLSCRTSQSIGDYLHWYQQKSHESPRLLIKYVSQSISGIPSRFSGSGSGSDFTLSINSVESEDVGVYYCQNVHSFPLTFGSGTKLELKR
On to B5, for which the Kd in the assay with recombinant human sc-uPA [2] was found to be 12 nM.

B6: rec0266-0000-0010-VL_S91L (antibody, mouse IgG1, name in Kabat numbering, V domains shown)
VH: DVKLVESGGGLVKPGGSLKLSCVASGFTFSSYTMSWVRQTPEKRLEWVATISGGGSHIYYADSVKGRFTISRDNAKNTLYLQMSSLKSEDTAIYYCTRDGRDGSWFAYWGQGTLVTVSA
VL: DIVMTQSPATLSVTPGDRVSLSCRTSQSIGDYLHWYQQKSHESPRLLIKYVSQSISGIPSRFSGSGSGSDFTLSINSVESEDVGVYYCQNLHSFPLTFGSGTKLELKR
Turning to B6, the Kd in the assay with recombinant human sc-uPA [2] turned out to be 5.7 nM.

B7: rec0266-0000-0010-VL_S91A (antibody, mouse IgG1, name in Kabat numbering, V domains shown)
VH: DVKLVESGGGLVKPGGSLKLSCVASGFTFSSYTMSWVRQTPEKRLEWVATISGGGSHIYYADSVKGRFTISRDNAKNTLYLQMSSLKSEDTAIYYCTRDGRDGSWFAYWGQGTLVTVSA
VL: DIVMTQSPATLSVTPGDRVSLSCRTSQSIGDYLHWYQQKSHESPRLLIKYVSQSISGIPSRFSGSGSGSDFTLSINSVESEDVGVYYCQNAHSFPLTFGSGTKLELKR
Consider B7, for which the Kd with recombinant human sc-uPA [2] is 1.3 nM.

B8: rec0266-0000-0010-VL_S91F (antibody, mouse IgG1, name in Kabat numbering, V domains shown)
VH: DVKLVESGGGLVKPGGSLKLSCVASGFTFSSYTMSWVRQTPEKRLEWVATISGGGSHIYYADSVKGRFTISRDNAKNTLYLQMSSLKSEDTAIYYCTRDGRDGSWFAYWGQGTLVTVSA
VL: DIVMTQSPATLSVTPGDRVSLSCRTSQSIGDYLHWYQQKSHESPRLLIKYVSQSISGIPSRFSGSGSGSDFTLSINSVESEDVGVYYCQNFHSFPLTFGSGTKLELKR
Turning to B8, in the assay with recombinant human sc-uPA [2], the dissociation constant (Kd) is 11 nM.

B9: rec0266-0000-0010-VL_S91K (antibody, mouse IgG1, name in Kabat numbering, V domains shown)
VH: DVKLVESGGGLVKPGGSLKLSCVASGFTFSSYTMSWVRQTPEKRLEWVATISGGGSHIYYADSVKGRFTISRDNAKNTLYLQMSSLKSEDTAIYYCTRDGRDGSWFAYWGQGTLVTVSA
VL: DIVMTQSPATLSVTPGDRVSLSCRTSQSIGDYLHWYQQKSHESPRLLIKYVSQSISGIPSRFSGSGSGSDFTLSINSVESEDVGVYYCQNKHSFPLTFGSGTKLELKR
Turning to B9, the Kd with recombinant human sc-uPA [2] was 3.2 nM.

B10: rec0266-0000-0010-VL_S91I (antibody, mouse IgG1, name in Kabat numbering, V domains shown)
VH: DVKLVESGGGLVKPGGSLKLSCVASGFTFSSYTMSWVRQTPEKRLEWVATISGGGSHIYYADSVKGRFTISRDNAKNTLYLQMSSLKSEDTAIYYCTRDGRDGSWFAYWGQGTLVTVSA
VL: DIVMTQSPATLSVTPGDRVSLSCRTSQSIGDYLHWYQQKSHESPRLLIKYVSQSISGIPSRFSGSGSGSDFTLSINSVESEDVGVYYCQNIHSFPLTFGSGTKLELKR
As for B10, the Kd in the assay with recombinant human sc-uPA [2] was 2.9 nM.

B11: rec0266-0000-0010-VL_S91P (antibody, mouse IgG1, name in Kabat numbering, V domains shown)
VH: DVKLVESGGGLVKPGGSLKLSCVASGFTFSSYTMSWVRQTPEKRLEWVATISGGGSHIYYADSVKGRFTISRDNAKNTLYLQMSSLKSEDTAIYYCTRDGRDGSWFAYWGQGTLVTVSA
VL: DIVMTQSPATLSVTPGDRVSLSCRTSQSIGDYLHWYQQKSHESPRLLIKYVSQSISGIPSRFSGSGSGSDFTLSINSVESEDVGVYYCQNPHSFPLTFGSGTKLELKR
As for B11, the Kd with recombinant human sc-uPA [2] is 2 nM.

B12: rec0266-0000-0010-VL_S91D (antibody, mouse IgG1, name in Kabat numbering, V domains shown)
VH: DVKLVESGGGLVKPGGSLKLSCVASGFTFSSYTMSWVRQTPEKRLEWVATISGGGSHIYYADSVKGRFTISRDNAKNTLYLQMSSLKSEDTAIYYCTRDGRDGSWFAYWGQGTLVTVSA
VL: DIVMTQSPATLSVTPGDRVSLSCRTSQSIGDYLHWYQQKSHESPRLLIKYVSQSISGIPSRFSGSGSGSDFTLSINSVESEDVGVYYCQNDHSFPLTFGSGTKLELKR
For the molecule B12, the Kd in the assay with recombinant human sc-uPA [2] was 2.1 nM.

B13: rec0266-0000-0010-VL_S91T (antibody, mouse IgG1, name in Kabat numbering, V domains shown)
VH: DVKLVESGGGLVKPGGSLKLSCVASGFTFSSYTMSWVRQTPEKRLEWVATISGGGSHIYYADSVKGRFTISRDNAKNTLYLQMSSLKSEDTAIYYCTRDGRDGSWFAYWGQGTLVTVSA
VL: DIVMTQSPATLSVTPGDRVSLSCRTSQSIGDYLHWYQQKSHESPRLLIKYVSQSISGIPSRFSGSGSGSDFTLSINSVESEDVGVYYCQNTHSFPLTFGSGTKLELKR
B13: in the assay with recombinant human sc-uPA [2], the Kd came out at 0.88 nM.

B14: rec0266-0000-0010-VL_S91H (antibody, mouse IgG1, name in Kabat numbering, V domains shown)
VH: DVKLVESGGGLVKPGGSLKLSCVASGFTFSSYTMSWVRQTPEKRLEWVATISGGGSHIYYADSVKGRFTISRDNAKNTLYLQMSSLKSEDTAIYYCTRDGRDGSWFAYWGQGTLVTVSA
VL: DIVMTQSPATLSVTPGDRVSLSCRTSQSIGDYLHWYQQKSHESPRLLIKYVSQSISGIPSRFSGSGSGSDFTLSINSVESEDVGVYYCQNHHSFPLTFGSGTKLELKR
As to B14, the equilibrium dissociation constant (Kd) with recombinant human sc-uPA [2] was determined as 5.3 nM.

B15: rec0266-0000-0010-VL_S91Q (antibody, mouse IgG1, name in Kabat numbering, V domains shown)
VH: DVKLVESGGGLVKPGGSLKLSCVASGFTFSSYTMSWVRQTPEKRLEWVATISGGGSHIYYADSVKGRFTISRDNAKNTLYLQMSSLKSEDTAIYYCTRDGRDGSWFAYWGQGTLVTVSA
VL: DIVMTQSPATLSVTPGDRVSLSCRTSQSIGDYLHWYQQKSHESPRLLIKYVSQSISGIPSRFSGSGSGSDFTLSINSVESEDVGVYYCQNQHSFPLTFGSGTKLELKR
As to B15, in the assay with recombinant human sc-uPA [2], the Kd was determined as 2.2 nM.

The Kd is a measure of binding affinity in units of concentration. Usually koff stands for the first-order rate constant of dissociation. As a reminder, the kon is the rate constant with which the complex forms.
